Data reported in paper PMC5542768, “Structural insight into the activation of a class B G-protein-coupled receptor by peptide hormones in live human cells” (eLife, 2017).
Non-standard residues stand in square brackets, D forms with d. No end group written: not given here. *: point of attachment. Nle = CCCC[C@H](N)C(=O)O; ClAc = O=C(CCl)*

Assays:
[1] = molecular target: corticotropin-releasing factor receptor type 1 (CRF1R), wild type (rat) (UniProt P35353)
CRF1R [2] = molecular target: T1, CRF1R (Rattus norvegicus, UniProt P35353); experiment: cAMP accumulation assay via luciferase reporter (ligand alone); type: cell-based; conditions: for Receptor activation at 100 nM: 100 nM peptide, normalized to either Ucn1 or CRF, HEK293; for Receptor activation at 100 nM / EC50: mean ± s.e.m., at least three independent experiments, each in triplicate; for CRF1R activation / residual activity up to the maximal tested concentration of 100 nM: Figure 1B legend; for CRF1R activation / residual activity up to the maximal tested concentration of 100 nM / EC50 (Figure 1B legend): HEK293, luciferase reporter; for EC50: cAMP level via luciferase reporter, transiently transfected HEK293 cells, 3 hr stimulation at 37°C; for EC50 (Figure 1B legend): agrees with literature data
T1 construct: all our experimental data are obtained from the intact full-length, fully glycosylated receptor at the membrane of the live cell; expressed in transfected cells; host or cells: HEK293 (transient co-transfection with CRE-luciferase reporter and Renilla plasmid)
T1 sequence (P35353 24-415): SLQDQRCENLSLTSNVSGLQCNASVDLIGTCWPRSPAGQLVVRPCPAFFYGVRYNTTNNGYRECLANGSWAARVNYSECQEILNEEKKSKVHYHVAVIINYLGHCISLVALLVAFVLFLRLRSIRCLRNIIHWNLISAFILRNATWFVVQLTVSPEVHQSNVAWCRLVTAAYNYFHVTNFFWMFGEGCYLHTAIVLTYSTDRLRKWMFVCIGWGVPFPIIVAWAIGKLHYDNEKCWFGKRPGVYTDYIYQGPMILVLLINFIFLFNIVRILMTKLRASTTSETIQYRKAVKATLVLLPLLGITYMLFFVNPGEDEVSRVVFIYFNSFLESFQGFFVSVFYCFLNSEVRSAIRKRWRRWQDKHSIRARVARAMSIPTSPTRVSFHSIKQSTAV
Text: Figure 1. Photo-crosslinking mapping of CRF1R to determine footprints of agonists and antagonists. (A) Sequence alignment of CRF1R peptide ligands. The classification into N-terminus, C-terminus and helical connector is adopted from [Beyermann et al. (2000]). […] In ^dFXCRF(12-41), substitutions of the two native Met residues to Nle and the N-terminal D-amino acid to enhance its stability and potency ([Rivier and Rivier, 2014]). […] The assay measures cAMP accumulation in live HEK293 cells stimulated with serial dilutions of each ligand via a luciferase reporter. Plots are representative mean ± s.e.m. of at least three independent experiments, each run in triplicates. (B) CRF1R activation elicited by each of the ligands used in this study. […] (E) Photo-crosslinking experiments. Transiently transfected 293T cells expressing each Azi-CRF1R mutant (residues replaced by Azi are indicated in the upper row) were incubated with each of the five peptide ligands indicated in the right column, followed by UV irradiation (365 nm). […] To obtain sharper bands, samples were deglycosylated by PNGaseF. The subdivision of transmembrane helices and ECLs is based on the crystal structure of the CRF1R TMD ([Hollenstein et al., 2013]). […] DOI: http://dx.doi.org/10.7554/eLife.27711.002 Figure 1—source data 1. Numerical values of cAMP accumulation assay. The assay measures cAMP accumulation in live HEK293 cells stimulated with serial dilutions of each ligand via a luciferase reporter. Raw luminescence data of the firefly reporter luciferase were normalized to the Renilla control and to 100% activation of agonists. At least three independent experiments were performed per ligand, and each experiment was run in triplicate. Values in the table represent a single measurement. Mean ± s.e.m. of triplicates for one representative experiment are reported in Figure 1B–D. DOI: http://dx.doi.org/10.7554/eLife.27711.003 Figure 1—source data 2. Numerical values of whole-cell ELISA of HA-Azi-CRF1R mutants. Related to Figure 1—figure supplement 1. The absorption was measured at 492 nm. Each data point was obtained as mean of three independent experiments, each performed in triplicate. Mean ± s.e.m. of the means of the triplicates are plotted in Figure 1—figure supplement 1B. DOI: http://dx.doi.org/10.7554/eLife.27711.004 Figure 1—figure supplement 1. Expression profiles of a subset of Azi-CRF1R mutants. […] (A) Whole-cell lysates of 293T cells transiently expressing each Azi-CRF1R mutant were resolved on 10% SDS-PAGE and analyzed by Western blotting using an M2 anti-FLAG-HRP antibody. The Azi mutation site is indicated in the top row. […] (B) Whole-cell ELISA of HA-Azi-CRF1R mutants. The absorptions at 492 nm (OD492) are shown as mean ± s.e.m. obtained from three independent experiments each performed in triplicates and normalized to wild type (wt). The positions replaced by Azi are identical to (A). DOI: http://dx.doi.org/10.7554/eLife.27711.005 [drawing 1]
The day prior to transfection, 6 × 10^6 HEK293 cells were seeded in 10 cm dishes. Cells were co-transfected with 0.5 µg of plasmid encoding the wild-type CRF1R gene under control of a PGK promoter, 5 µg of the reporter construct (humanized PpyRE9 [[Branchini et al., 2010]] firefly luciferase gene driven by a cAMP-responsive element and followed by a PEST sequence), and 0.5 µg of plasmid encoding Renilla luciferase driven by a CMV promoter. Transfection was performed using PEI max as described above. The following day, cells were trypsinized and transferred into a 96-well plate at a density of 180,000 cells per well.

CRF1R [3] = conditions: ref Gulyas et al., 1995; cited from earlier work

| Substance | Receptor activation at 100 nM [%] (cAMP accumulation, normalized to Ucn1 or CRF) [1] | EC50 of cAMP accumulation (CRE-luciferase reporter) in HEK293 cells transfected with CRF1R [1] [nM] | also measured |
| --- | --- | --- | --- |
| CRF(9-41): 33-mer antagonist obtained by N-terminal truncation of the first eight residues of CRF (DLTFHLLREVLEMARAEQLAQQAHSNRKLMEII; ends and bridges not checked; UniProt P06850 162-194, looked up, fragment) |  |  | Receptor activation at 100 nM (CRF1R [2]): 4.03 ± 1.27%; CRF1R activation / residual activity up to the maximal tested concentration of 100 nM (CRF1R [2]): < 10% |
| SEEPPISLDLTFHLK(ClAc)REVLE[Nle]ARAEQLAQQAHSNRKL[Nle]EII-NH2 [[Lys(ClAc)^15]- ^XCRF] |  |  | EC50 (CRF1R [2]): 0.08 ± 0.22 nM |
| SEEPPISLDLTFHLLREVLE[Nle]ARAEQLAQQAHK(ClAc)NRKL[Nle]EII-NH2 [[Lys(ClAc)^33]- ^XCRF] |  |  | EC50 (CRF1R [2]): 0.04 nM |
| SEEPPISLDLTFHLLRK(ClAc)VLE[Nle]ARAEQLAQQAHSNRKL[Nle]EII-NH2 [[Lys(ClAc)^17]- ^XCRF] |  |  | EC50 (CRF1R [2]): 0.08 nM |
| Ucn1(8-40): 33-mer N-truncated Ucn1 antagonist, introduced in this work for the first time (DLTFHLLRTLLELARTQSQRERAEQNRIIFDSV; ends and bridges not checked; UniProt P55089 90-122, looked up, fragment) |  |  | Receptor activation at 100 nM (CRF1R [2]): 8.20 ± 2.76%; CRF1R activation / residual activity up to the maximal tested concentration of 100 nM (CRF1R [2]): < 10% |
| Urocortin I (DNPSLSIDLTFHLLRTLLELARTQSQRERAEQNRIIFDSVGK) [Ucn1, 40-mer endogenous peptide agonist of CRF1R] |  |  | EC50 (Figure 1B legend) (CRF1R [2]): Sub-nanomolar |
| Urocortin I (Ucn1) (from UniProt P55089 83-124) (peptide) |  | 0.16 |  |
| [DPhe^12,Nle^21,38]-CRF(12-41) [^dFXCRF(12-41)] |  |  | Receptor activation at 100 nM (CRF1R [2]): 0.53 ± 0.47%; CRF1R activation / residual activity up to the maximal tested concentration of 100 nM (CRF1R [2]): did not elicit any significant receptor activation; Binding affinity of CRF1R relative to CRF (lower) (CRF1R [3]): ~ 10 fold |
| [Lys(ClAc)^15]-^XCRF (peptide) |  | 0.08 |  |
| [Lys(ClAc)^15]-^dFXCRF(12-41) (peptide) | 0.39 |  |  |
| [Lys(ClAc)^17]-^XCRF (peptide) |  | 0.08 |  |
| [Lys(ClAc)^18]-^XCRF (peptide) |  | 0.03 |  |
| [Lys(ClAc)^18]-^dFXCRF(12-41) (peptide) | 0.59 |  |  |
| [Lys(ClAc)^31]-^dFXCRF(12-41) (peptide) | 0.52 |  |  |
| corticotropin-releasing factor (SEEPPISLDLTFHLLREVLEMARAEQLAQQAHSNRKLMEIIGK) [CRF, 41-mer endogenous peptide agonist of CRF1R] |  |  | EC50 (Figure 1B legend) (CRF1R [2]): Sub-nanomolar |

Continued, in another order:

| Receptor activation at 100 nM [%] (cAMP accumulation, normalized to Ucn1 or CRF) [1] | EC50 of cAMP accumulation (CRE-luciferase reporter) in HEK293 cells transfected with CRF1R [1] [nM] | Substance | also measured |
| --- | --- | --- | --- |
| 4.03 |  | CRF(9-41) (peptide) |  |
| 8.2 |  | Ucn1(8-40) (peptide) |  |
| 0.62 |  | [ClAc^0]-^dFXCRF(12-41) (peptide) |  |
| 0.53 |  | [DPhe^12,Nle^21,38]-CRF(12-41) (peptide) |  |
|  | 0.03 | [Lys(ClAc)^13]-^XCRF (peptide) |  |
| 2.41 |  | [Lys(ClAc)^13]-^dFXCRF(12-41) (peptide) |  |
| 1.49 |  | [Lys(ClAc)^14]-^dFXCRF(12-41) (peptide) |  |
|  | 0.2 | [Lys(ClAc)^16]-^XCRF (peptide) |  |
| 1.06 |  | [Lys(ClAc)^16]-^dFXCRF(12-41) (peptide) |  |
| 0.31 |  | [Lys(ClAc)^17]-^dFXCRF(12-41) (peptide) |  |
|  | 0.06 | [Lys(ClAc)^31]-^XCRF (peptide) |  |
|  | 0.04 | [Lys(ClAc)^33]-^XCRF (peptide) |  |
| 1.85 |  | [Lys(ClAc)^33]-^dFXCRF(12-41) (peptide) |  |
|  | 0.11 | corticotropin-releasing factor (CRF) (from UniProt P06850 154-196) (peptide) |  |
